The supplement of paper PMC10126150
± gives the standard deviation of the averaged measurements.

tested on: ATP; assay: switch fluorescence ratio, 500 uM ATP over buffer (Cy3 cluster intensity, sum of 5 cycles each) (fold (ratio)); higher = stronger signal-on switching upon ATP binding; sequences stand for … in TCGTCGGCAGCGTCAGATGTGTATAAGAGACAGTTTTTTTTTTTTTTTTTTTTTTTTT…TC; details: aptamer strand: ATP DNA aptamer (quencher-CACCTGGGGGAGTATTGCGGAGGAAGG + anchor), 100 nM annealed; ATP concentration: 500 uM
Procedure, shortened: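 Clusters with intensities outside 100-1000 RFU were excluded. The remaining Cy3-labelled switching-strand clusters on a modified Illumina MiSeq flow-cell had been annealed to 100 nM quencher-labelled ATP aptamer and imaged in selection buffer, then after 15 min with 500 uM ATP at 22 °C, for five cycles separated by NaOH stripping and re-annealing. The fluorescence ratio, averaged per switch-domain sequence, is each cluster's summed target-cycle Cy3 intensity over its summed buffer-cycle Cy3 intensity.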
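Also: ATP exposure 15 min at 22 °C before imaging.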

In order of falling switch fluorescence ratio:
1. GATGCAAGAG  3.78 ± 0.7
2. GCAATTCTAC  3.085 ± 0.025
3. GCAGCAGGGG  1.84 ± 0.23
4. GCACCATTCC  1.72 ± 0.07
5. GATGCAATCT  1.44 ± 0.08
6. GCAGGGGGCC  1.4 ± 0.63
7. GCAATCTGGG  1.38 ± 0.079
8. GATGCGGGAC  1.34 ± 0.07
9. GCACCCCGCC  1.33 ± 0.036
10. GCAGGTGACT  1.33 ± 0.077
11. GCAAGGCGAG  1.3 ± 0.031
12. GCAATTGGTC  1.25 ± 0.06
13. GATTAAATAC  1.24 ± 0.064
14. GCATTAAGAC  1.23 ± 0.091
15. GATGAAAGGG  1.22 ± 0.46
16. GATGCAGCAA  1.22 ± 0.062
17. GCACTTCCCT  1.19 ± 0.014
18. GATTCCGTCC  1.177 ± 0.0046
19. GATGTGAGGC  1.14 ± 0.046
20. GCAATGAGGG  1.14 ± 0.034
21. GCAATTAAAG  1.12 ± 0.14
22. GATTTTGCCG  1.11 ± 0.1
23. GATCTTTCCG  1.08 ± 0.059
24. GCACGCCTGG  1.0842 ± 0.00097
25. GCAGTCAAGC  1.08 ± 0.011
26. GCATTCGCCT  1.08 ± 0.035
27. GCAGTCCGAG  1.07 ± 0.043
28. GATGCGGGGC  1.06 ± 0.03
29. GATGCGTCAC  1.06 ± 0.056
30. GCAAGAGGGG  1.06 ± 0.039
31. GCAAGGGGAT  1.06 ± 0.11
32. GCACGTAGCG  1.06 ± 0.046
33. GATGCCGGGG  1.05 ± 0.095
34. GATGTTCGGC  1.05 ± 0.037
35. GATTTCGGTC  1.05 ± 0.056
36. GCACTGGTAT  1.05 ± 0.024
37. GCAGGGGACG  1.05 ± 0.015
38. GATGAACCTA  1.04 ± 0.024
39. GCACTGGT  1.04 ± 0.062
40. GCAGCGTTCT  1.04 ± 0.069
41. GCAGTTAAAC  1.04 ± 0.045
42. GCAGTTTTCA  1.04 ± 0.095
43. GATGGGGGCG  1.03 ± 0.093
44. GATTATTTTC  1.03 ± 0.061
45. GATTGGGAGG  1.03 ± 0.034
46. GCAAAGGGCG  1.03 ± 0.034
47. GCAACCCGGT  1.028 ± 0.0037
48. GCAGCTGGG  1.03 ± 0.039
49. GCATGTCGGG  1.03 ± 0.015
50. GCATTGACGG  1.03 ± 0.02
51. GATCTTGATG  1.02 ± 0.036
52. GATCTTTTTG  1.02 ± 0.014
53. GATGGCAGCA  1.021 ± 0.0086
54. GATGGGGATA  1.02 ± 0.013
55. GATTGCATGG  1.02 ± 0.013
56. GATTGCTTTC  1.02 ± 0.023
57. GATTGTTTTA  1.02 ± 0.016
58. GATTTACAGC  1.02 ± 0.054
59. GATTTTACGT  1.021 ± 0.0067
60. GCAAAAAAAC  1.02 ± 0.067
61. GCAAGTGGTG  1.02 ± 0.03
62. GCACATAGGG  1.02 ± 0.011
63. GCACATGAGA  1.02 ± 0.021
64. GCAGCCCCTG  1.02 ± 0.048
65. GCAGGGGCCC  1.02 ± 0.027
66. GCAGTCTGCC  1.02 ± 0.07
67. GCAGTGGGTT  1.02 ± 0.074
68. GCATAGAGCG  1.02 ± 0.065
69. GCATCCCGAG  1.02 ± 0.025
70. GATCTTTCGT  1.01 ± 0.031
71. GATGAGGATT  1.01 ± 0.011
72. GATGCGTTCG  1.01 ± 0.018
73. GATGGAGTTA  1.01 ± 0.047
74. GATGGATAAG  1.009 ± 0.0024
75. GATGGATTCG  1.01 ± 0.026
76. GATGGGAGTT  1.01 ± 0.014
77. GATGGGGGGA  1.01 ± 0.029
78. GATGTGGTCT  1.014 ± 0.0075
79. GATTAGGGTG  1.01 ± 0.026
80. GATTATAAGG  1.007 ± 0.01
81. GATTCGTCGG  1.01 ± 0.021
82. GATTGAGGGA  1.01 ± 0.016
83. GATTGAGGGG  1.01 ± 0.017
84. GATTGGGAGC  1.01 ± 0.037
85. GATTTAGTAC  1.01 ± 0.067
86. GCAACCCGGA  1.01 ± 0.012
87. GCAATTTGAT  1.01 ± 0.02
88. GCACGCCGAG  1.01 ± 0.012
89. GCACTCGGTG  1.01 ± 0.048
90. GCAGATGGTT  1.01 ± 0.015
91. GCAGTAAATA  1.009 ± 0.0086
92. GCATCGAGGC  1.01 ± 0.14
93. GCATGGAGGG  1.01 ± 0.025
94. GCATTAAGGG  1.01 ± 0.039
95. GCATTAATCG  1.01 ± 0.025
96. GATGGGCAGG  1 ± 0.024
97. GATGGGGGTT  1 ± 0.012
98. GATGGTGTTT  1 ± 0.034
99. GATGTATAAA  1.0015 ± 0.00099
100. GATTAAGAAT  1 ± 0.027
101. GATTAGAAGG  1 ± 0.026
102. GATTATATGG  1 ± 0.039
103. GATTGGGGGG  1 ± 0.029
104. GATTGGTACT  1 ± 0.02
105. GATTTGGTAG  1 ± 0.023
106. GATTTTCATG  1 ± 0.013
107. GATTTTTCAT  1 ± 0.034
108. GCAAAAGGAG  1 ± 0.059
109. GCAAGAGTGG  1 ± 0.034
110. GCAAGATTCA  1 ± 0.021
111. GCAATTAATG  1 ± 0.015
112. GCAGGGATGC  1 ± 0.057
113. GCAGGGTGCG  1 ± 0.032
114. GCAGGGTGGC  1 ± 0.062
115. GCAGTGGGGG  1 ± 0.08
116. GCATAGGTTA  1 ± 0.015
117. GCATCACGTT  1 ± 0.029
118. GCATCTGTAG  1 ± 0.067
119. GCATGTCTTG  1 ± 0.028
120. GCATGTGAAA  1 ± 0.015
121. GATTGGGTAG  0.999 ± 0.02
122. GCAGTTGCTG  0.999 ± 0.02
123. GATGGGGGCC  0.998 ± 0.026
124. GCAGTAGCTG  0.998 ± 0.011
125. GATGTATGGA  0.997 ± 0.027
126. GATTATATTT  0.997 ± 0.045
127. GATTTTTTCG  0.997 ± 0.01
128. GCAATTGAGT  0.997 ± 0.036
129. GCAGGATCCG  0.99684 ± 0.00077
130. GCATGGCCTA  0.997 ± 0.021
131. GATTGGGCCA  0.996 ± 0.017
132. GATTTCATCT  0.995 ± 0.032
133. GATGCCTTTG  0.994 ± 0.018
134. GATGGGGTAG  0.994 ± 0.039
135. GATGGTAGTC  0.994 ± 0.027
136. GATTATTTTT  0.994 ± 0.028
137. GCACTCAGGC  0.994 ± 0.03
138. GATGCGTGCT  0.993 ± 0.055
139. GATTTGGATT  0.993 ± 0.012
140. GATGGGTGAC  0.992 ± 0.024
141. GATGTGCAGG  0.9915 ± 0.0084
142. GCAACTTCGG  0.992 ± 0.016
143. GCATAAGGGG  0.992 ± 0.018
144. GATTTTTTGG  0.991 ± 0.034
145. GCAGTCTGGG  0.991 ± 0.01
146. GATGAGGTAT  0.9899 ± 0.002
147. GATTATAAGT  0.99 ± 0.017
148. GCACGGGCCC  0.99 ± 0.028
149. GCATGAAGTA  0.99 ± 0.017
150. GATGAGAATT  0.98912 ± 0.00024
151. GATGTTGGGA  0.989 ± 0.016
152. GCAGTAGGGG  0.989 ± 0.015
153. GATTTTTATT  0.988 ± 0.025
154. GCACGGGGGA  0.9884 ± 0.0077
155. GATGGCTTGG  0.987 ± 0.018
156. GATTGAGTTT  0.9866 ± 0.0089
157. GATTTGATGG  0.987 ± 0.045
158. GCAATGGCAT  0.987 ± 0.03
159. GCAGGTTTTG  0.987 ± 0.04
160. GATTTGGAAT  0.986 ± 0.037
161. GATTTGTCGT  0.986 ± 0.022
162. GATGTATGGG  0.984 ± 0.015
163. GATTATCTGG  0.984 ± 0.025
164. GATTTAAAGC  0.984 ± 0.034
165. GATGTTAGGG  0.983 ± 0.026
166. GCATGTATGG  0.983 ± 0.044
167. GATGTAATTG  0.9822 ± 0.0094
168. GATGTAGACT  0.9818 ± 0.0033
169. GATTGAGATT  0.981 ± 0.033
170. GATTGAGGAG  0.981 ± 0.03
171. GATTTTGTGT  0.98 ± 0.043
172. GCAGATTTTG  0.98 ± 0.038
173. GCAAGGTTTT  0.979 ± 0.027
174. GATGATCAG  0.978 ± 0.035
175. GCATGTATAT  0.978 ± 0.045
176. GATGAATGTT  0.9766 ± 0.0041
177. GATTATGTTA  0.9772 ± 0.007
178. GCAAAGGGGG  0.9758 ± 0.006
179. GCATGTCAGT  0.9762 ± 0.00048
180. GATGGTGAAA  0.975 ± 0.039
181. GATTGCTCGT  0.975 ± 0.028
182. GATTGGGACT  0.975 ± 0.027
183. GCAGGTTCAG  0.975 ± 0.021
184. GATGTGTGGC  0.974 ± 0.022
185. GATTTCAGTG  0.974 ± 0.023
186. GCATGACCAG  0.974 ± 0.026
187. GATGTACGCA  0.973 ± 0.075
188. GATGTAAGTG  0.972 ± 0.02
189. GATTGGGTGA  0.972 ± 0.011
190. GATTGAGCCC  0.971 ± 0.037
191. GCACCGGGGC  0.971 ± 0.015
192. GCACGAGTGC  0.97 ± 0.02
193. GCAGGATGAA  0.97 ± 0.042
194. GATTTTAGTG  0.969 ± 0.015
195. GATTGAAGCC  0.962 ± 0.064
196. GATGATGTCC  0.96 ± 0.01
197. GATGTGCAGA  0.959 ± 0.038
198. GCAGTCCTTT  0.958 ± 0.029
199. GATGTGTCCG  0.956 ± 0.086
200. GATGATCACA  0.951 ± 0.036
